Measurements taken from paper PMC6332120.

Target: thioredoxin glutathione reductase (TGR) from Mesocestoides vogae (Mesocestoides vogae (endogenous in tetrathyridium larvae))
Assay: SEC; 25%-50% ammonium sulfate fraction of the larval extract, dialysed against PBS, on HiLoad 16/600 Superdex 200 pg; TR and GR activities traced in the fractions

stoichiometry N: 2
Substance: thioredoxin glutathione reductase (TGR) from Mesocestoides vogae (enzyme)
